Assay results: publication PMC9922994, “Comprehensive screening strategy coupled with structure-guided engineering of L-threonine aldolase from Pseudomonas putida for enhanced catalytic efficiency towards L-threo-4-methylsulfonylphenylserine” (Frontiers in Bioengineering and Biotechnology, 2023)

B1: L-PpTA (Pseudomonas putida KT2440) (protein)
chain: MTDKSQQFASDNYSGICPEAWVAMEKANRGHDRAYGDDQWTERASEYFRNLFETDCEVFFAFNGTAANSLALASLCQSYHSVICSETAHVETDECGAPEFFSNGSKLLTAASVNGKLTPQSIREVALKRQDIHYPKPRVVTITQATEVGTVYRPDELKAISATCKELGLNLHMDGARFTNACAFLGCSPAELTWKAGVDVLCFGGTKNGMAVGEAILFFNRQLAEDFDYRCKQAGQLASKMRFLSAPWVGLLEDGAWLRHGNHANHCAQLLASLVSDLPGVELMFPVEANGVFLQMPEHAIEALRGKGWRFYTFIGSGGARFMCSWDTEEARVRELAADIRTIIGG
notes: E. coli BL21(DE3); HisTrap, Resource Q, Superdex 200

Substrate: NCC(=O)O
Test: purified protein
Type: biochemical, Pseudomonas putida
Conditions: glycine varied 2.5-50 mM, co-substrate 4-methylsulfonylbenzaldehyde, PLP, HEPES-NaOH pH 8.0, 30 °C

Molecule | Km [mM] | kcat [s⁻¹] | kcat/Km [M⁻¹ s⁻¹]
B1 | 17.4 | 7.1 | 410

System: T1, NCC(=O)O
T1 construct: E. coli BL21(DE3); HisTrap, Resource Q, Superdex 200
Test: purified protein
Type: biochemical, Pseudomonas putida
Conditions: glycine varied 2.5-50 mM, co-substrate 4-methylsulfonylbenzaldehyde, PLP, HEPES-NaOH pH 8.0, 30 °C

Molecule | Km [mM] | kcat [s⁻¹] | kcat/Km [M⁻¹ s⁻¹]
L-PpTA (Pseudomonas putida KT2440; Y312R) | 20.1 | 12.2 | 610
L-PpTA (Pseudomonas putida KT2440; H133W) | 12.9 | 12.3 | 950
L-PpTA (Pseudomonas putida KT2440; Y13C) | 24.7 | 13.9 | 560
L-PpTA (Pseudomonas putida KT2440; Y312E) | 25.3 | 15.3 | 600
L-PpTA (Pseudomonas putida KT2440; H133N) | 12.8 | 12.7 | 990
L-PpTA (Pseudomonas putida KT2440; E147D) | 15.1 | 6.5 | 430
L-PpTA (Pseudomonas putida KT2440; Y13K) | 19.6 | 10.4 | 530
L-PpTA (Pseudomonas putida KT2440; A9L) | 14.6 | 7.7 | 530
L-PpTA (Pseudomonas putida KT2440; A9V) | 13.8 | 7.2 | 520
L-PpTA (Pseudomonas putida KT2440; H133Y) | 22.6 | 12.5 | 550
